From publication PMC3655262
Numbering of substitutions follows the chain as printed. Read-outs that look alike come from different tables or passages of the source.

T1: hZFP57zf3-4E273A (Homo sapiens, UniProt Q9NU63-3 227-287, C232F;E273A)
T1 sequence: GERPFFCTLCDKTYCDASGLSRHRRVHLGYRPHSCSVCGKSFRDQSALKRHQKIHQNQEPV

T2: hZFP57zf3-4 (C232F) (Homo sapiens, UniProt Q9NU63-3 227-287, C232F)
T2 sequence: T1 sequence with A47E

T3: hZFP57zf1-4 (Homo sapiens, UniProt Q9NU63-3 172-287)
T3 sequence: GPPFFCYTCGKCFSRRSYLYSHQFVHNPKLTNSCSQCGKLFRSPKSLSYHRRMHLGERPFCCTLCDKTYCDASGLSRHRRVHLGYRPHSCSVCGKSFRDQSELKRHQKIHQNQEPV

B1: TGCCGC unmethylated probe (dsDNA)
DNA 1: GTAATATTGCCGCAGTAATA
DNA 2: TATTACTGCGGCAATATTAC
B2: TGCmetCGC probe (both strands methylated) (dsDNA)
DNA 1: GTAATATTGCCGCAGTAATA
DNA 2: TATTACTGCGGCAATATTAC
modifications: 5-methylcytosine at C11 of strand 1 and C9 of strand 2

Columns and labels:
Assay in all cases: EMSA
hZFP57zf3-4E273A [1] = biological target: T1, hZFP57zf3-4E273A
hZFP57zf3-4 (C232F) = biological target: T2, hZFP57zf3-4 (C232F)
hZFP57zf1-4 = biological target: T3, hZFP57zf1-4
hZFP57zf3-4E273A [2] = biological target: T1, hZFP57zf3-4E273A; remark: listed apart in the source

| Binder | binding result (hZFP57zf3-4E273A [1]) | binding result (hZFP57zf3-4 (C232F)) | binding result (hZFP57zf1-4) | binding result (hZFP57zf3-4E273A [2]) |
| --- | --- | --- | --- | --- |
| B1 | binds |  |  |  |
| B2 |  | binds | binds | binds |
